Reference: US7727739B2, “Methods for measuring enzyme activity” (GE Healthcare UK Limited, priority 2002, dated 2010)
Blank lines part the entries; values can stand above or below the molecule they belong to. Non-standard residues stand in square brackets, D forms with d. Residues, ends and D or L forms follow the SMILES beside them. No end group written: not given here. *: point of attachment. X1 = 6‑(9-oxo-9H-acridin-10-yl)hexanoyl, O=C(CCCCCn1c2ccccc2c(=O)c2ccccc21)*; Sta = CC(C)C[C@H](N)[C@@H](O)CC(=O)O; Phe(NO2) = nitro-phenylalanine; Isovaleryl = CC(C)CC(=O)*; Nva = CCC[C@H](N)C(=O)O

What was measured:
[1] = Fluorescence lifetimes stated for labels and typical substrates; type: physicochemical; conditions: for lifetime of fluorescent label: free label; for lifetime of typical substrate: intact substrate, products 14 nano seconds
[2] = Fluorescence lifetime of labelled substrate in protease assay buffers; type: physicochemical
Procedure: A no enzyme control (NEC) having 10 μl of buffer in place of enzyme was used. […] Since the lifetimes of substrate (10.3 ns) and product (13.8 ns) are different it was possible to monitor the appearance of product and disappearance of the substrate, the results are shown in FIG. 2.
A no enzyme control (NEC) having 10 μl of buffer in place of enzyme was used. […] Since the lifetimes of the substrate (11.5 ns) and product (14.5 ns) in Tris buffer are different it was possible to monitor the appearance of product and disappearance of the substrate, the results are shown in FIG. 3.
A no enzyme control (NEC) having 100 μl of buffer in place of enzyme was included.

pepsin [3] = target: pepsin (Homo sapiens, UniProt P0DJD7); assay: Inhibition of pepsin activity, fluorescence lifetime protease assay; type: biochemical; conditions: pepsin 0.5 ng; 0.1M citrate buffer pH3.6; FIG. 8; read-out: apparent IC50, pepsin digestion of the peptide substrate
Sequence of pepsin (Homo sapiens, UniProt P0DJD7) (P0DJD7 63-388): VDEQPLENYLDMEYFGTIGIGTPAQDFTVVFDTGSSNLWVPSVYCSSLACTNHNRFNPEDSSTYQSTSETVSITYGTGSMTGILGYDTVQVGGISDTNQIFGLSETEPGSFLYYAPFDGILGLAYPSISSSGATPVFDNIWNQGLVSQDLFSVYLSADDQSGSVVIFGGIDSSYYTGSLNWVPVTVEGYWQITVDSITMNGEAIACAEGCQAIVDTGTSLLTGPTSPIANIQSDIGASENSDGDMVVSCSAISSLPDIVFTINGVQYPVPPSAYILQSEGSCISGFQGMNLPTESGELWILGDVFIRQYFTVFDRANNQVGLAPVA
Procedure: After incubation at ambient temperature, the fluorescence intensity and lifetime were recorded. Deconvolution using a non-linear least-squares analysis algorithm gave the fluorescence lifetimes.

[4] = Fluorescence lifetime of labelled peptides by time-correlated single photon counting; type: physicochemical; conditions: 100 nM in TNC-T buffer pH7.5; excited at 405 nm, detection at 450 nm
Procedure: The lifetime of this solution was determined (2 ml volume in a cuvette) by a time-correlated single photon counting technique (Edinburgh Analytical Instruments FL900CDT spectrometer). Samples were excited at 405 nm using a laser diode, detection being at 450 nm.
The labelled peptide (6-(9-oxo-9H-acridin-10-yl) hexanoic acid- RPKPVENvaWRK) (SEQ ID NO:3) was also diluted to 100 nM in TNC-T buffer and the lifetime was similarly recorded.

[5] = test system: T1, 6-(9-oxo-9H-acridin-10-yl) hexanoyl-CHLDIIW
T1 sequence: CHLDIIW

[6] = test system: T2, 6-(9-oxo-9H-acridin-10-yl) hexanoyl-Ala-Ala-Phe-Phe-Ala-Ala-Tyr [AAFFAAY]
T2 sequence: AAFFAAY

pepsin [7] = assay: cell-based or functional assay
[8] = target: bovine kidney cathepsin D (bovine) (UniProt P80209); assay: cell-based or functional assay
Sequence of bovine kidney cathepsin D (bovine) (P80209 45-390 limits assumed): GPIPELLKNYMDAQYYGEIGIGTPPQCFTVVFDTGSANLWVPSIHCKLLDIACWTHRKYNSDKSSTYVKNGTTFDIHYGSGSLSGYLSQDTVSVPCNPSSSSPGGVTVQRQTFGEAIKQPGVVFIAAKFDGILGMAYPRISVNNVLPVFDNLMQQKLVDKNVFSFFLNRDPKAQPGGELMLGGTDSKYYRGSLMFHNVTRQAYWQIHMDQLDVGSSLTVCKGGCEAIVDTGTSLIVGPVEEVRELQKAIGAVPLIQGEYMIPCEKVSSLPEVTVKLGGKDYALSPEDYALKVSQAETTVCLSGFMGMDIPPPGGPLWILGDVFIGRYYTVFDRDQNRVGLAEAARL

[9] = test system: T3, 6-(9-oxo-9H-acridin-10-yl) hexanoic acid-Arg-Pro-Lys-Pro-Val-Glu-Nva-Trp-Arg-Lys-NH2
T3 sequence: RPKPVEXWRK

[10] = target: T4, 6-(9-oxo-9H-acridin-10-yl) hexanoic acid-AAFFAAF-nitro (not fully specified)
T4 chain: AAFFAAF

- lifetime of fluorescent label [1]: 4 ns
Molecule: O=C(O)CCCCCNC(=O)c1cccc2c(=O)c3ccccc3[nH]c12 [6-(9-oxo-9H-acridin-4-carboxamido) hexanoic acid]

Molecule: 6-(9-oxo-9H-acridin-10-yl) hexanoyl-Ala-Ala-Phe-Phe-Ala-Ala-Tyr (X1-AAFFAAY) [acridone-labelled protease substrate peptide]
- fluorescence lifetime of substrate ([2]; 50 mM Tris buffer, pH7.8, 10 mM CaCl2): 11.5 ns
- fluorescence lifetime of substrate ([2]; 0.1M citrate buffer, pH3.6, 0.005% Tween-20): 10.3 ns
- lifetime of typical substrate [1]: 10 nano seconds

Molecule: CC(C)CC(=O)N[C@H](C(=O)N[C@H](C(=O)N[C@@H](CC(C)C)[C@@H](O)CC(=O)N[C@@H](C)C(=O)N[C@@H](CC(C)C)[C@@H](O)CC(=O)O)C(C)C)C(C)C [Pepstatin A] (Isovaleryl-VV[Sta]A[Sta]-OH)
- IC50 (pepsin [3]): 0.88 nM

Molecule: 6-(9-oxo-9H-acridin-10-yl) hexanoic acid- AAFFAAF-nitro (X1-AAFFAA[Phe(NO2)]; not fully specified) [acridone-labelled nitro-phenylalanine peptide, thermolysin substrate]
- fluorescence lifetime of substrate ([2]; PBS buffer, pH7, stretched exponential analysis): 2.5 ns

- lifetime of fluorescent label [1]: 8 ns
Molecule: O=C(O)CCCCCn1c2ccccc2c(=O)c2cc(Br)ccc21 [6-(2-bromo-9-oxo-9H-acridin-10-yl) hexanoic acid]

Molecule: 6-(9-oxo-9H-acridin-10-yl) hexanoyl- CHLDIIW (X1-CHLDIIW) [acridone-labelled Asp-n protease substrate]
- lifetime of typical substrate [1]: 10 nano seconds

Molecule: 6-(9-oxo-9H-acridin-10-yl) hexanoic acid- RPKPVE (Arg-Pro-Lys-Pro-Val-Glu) (X1-RPKPVE) [acridone-labelled peptide without tryptophan]
- Lifetime (ns) [4]: 13.9 ns

- lifetime of fluorescent label [1]: 17 ns
Molecule: CC(=O)Nc1ccc2c(c1)c(=O)c1ccccc1n2CCCCCC(=O)O [6-(2-(acetamido)-9-oxo-9H-acridin-10-yl) hexanoic acid]

Molecule: Asp-n
- protease digestion of labelled substrate (fluorescence intensity and lifetime) [5]: illustrates the digestion of 6-(9-oxo-9H-acridin-10-yl) hexanoyl -CHLDIIW (SEQ ID NO:2) with Asp-n

- lifetime of fluorescent label [1]: 14 ns
Molecule: O=C(O)CCCCCn1c2ccccc2c(=O)c2ccccc21 [6-(9-oxo-9H-acridin-10-yl) hexanoic acid]

Molecule: chymotrypsin
- protease digestion of labelled substrate (fluorescence lifetime) [6]: it was possible to monitor the appearance of product and disappearance of the substrate

Molecule: pepsin
- protease digestion of labelled substrate (fluorescence lifetime) [6]: it was possible to monitor the appearance of product and disappearance of the substrate

- inhibition of pepsin digestion of the labelled peptide substrate (fluorescence lifetime), apparent IC50 (pepsin [7]): 0.88 nM
- cathepsin D enzyme activity at 12 nM pepstatin A against no inhibitor [8]: 5 fold
Molecule: Pepstatin A (peptide)

Molecule: Matrix Metalloproteinase 3
- protease digestion of labelled substrate (fluorescence lifetime) [9]: enzyme-dependant appearance of the product (14 ns lifetime species) and disappearance of the substrate (10 ns lifetime species)

Molecule: 6-(9-oxo-9H-acridin-10-yl) hexanoic acid- Arg-Pro-Lys-Pro-Val-Glu-Nva-Trp-Arg-Lys-NH2 (X1-RPKPVE[Nva]WRK-NH2; SMILES CCC[C@H](NC(=O)[C@H](CCC(=O)O)NC(=O)[C@@H](NC(=O)[C@@H]1CCCN1C(=O)[C@H](CCCCN)NC(=O)[C@@H]1CCCN1C(=O)[C@H](CCCNC(=N)N)NC(=O)CCCCCn1c2ccccc2c(=O)c2ccccc21)C(C)C)C(=O)N[C@@H](Cc1c[nH]c2ccccc12)C(=O)N[C@@H](CCCNC(=N)N)C(=O)N[C@@H](CCCCN)C(N)=O) [acridone-labelled MMP-3 substrate peptide]
- fluorescence lifetime of substrate ([2]; 50 mM Tris buffer pH 7.5, MMP-3 assay, FIG. 6): 10 ns
- lifetime of typical substrate [1]: 10 nano seconds
- Lifetime (ns) [4]: 12.6 ns

B1: thermolysin (protein)
chain: ITGTSTVGVGRGVLGDQKNINTTYSTYYYLQDNTRGNGIFTYDAKYRTTLPGSLWADADNQFFASYDAPAVDAHYYAGVTYDYYKNVHNRLSYDGNNAAIRSSVHYSQGYNNAFWNGSQMVYGDGDGQTFIPLSGGIDVVAHELTHAVTDYTAGLIYQNESGAINEAISDIFGTLVEFYANKNPDWEIGEDVYTPGISGDSLRSMSDPAKYGDPDHYSKRYTGTQDNGGVHINSGIINKAAYLISQGGTHYGVSVVGIGRDKLGKIFYRALTQYLTPTSNFSQLRAAAVQSATDLYGSTSQEVASVKQAFDAVGVK
- protease digestion of labelled substrate (fluorescence lifetime) [10]: it was possible to monitor the appearance of product and disappearance of the substrate
